Test results reported in article PMC7904085.

Target: Protein A/G
Assay: single-molecule TIRF microscopy, saturation curve

## Mouse monoclonal anti-V5 tag antibody [SV5-Pk1]
  Kd: 4.6 nM
